The assay can be described thus: HCPB activity of COS-7 cell supernatants against Hipp-Arg (5 h assay). The class given is biochemical. The conditions noted are these: COS-7 cell supernatant 250 μl. The protocol:
Measurements were carried out at 37° C. in 0.25 mM Tris HCl buffer, pH 7.5 using 1 cm path length cuvettes in a total volume of 1.0 ml using a Perkin Elmer Lambda 2 spectrophotometer. Km and Vmax values were calculated using the ENZFITTER software programme (Biosoft, Perkin Elmer). Kcat was calculated from Vmax by dividing by the enzyme concentration in the reaction mixture.
For expression in eukaryotic cells, vectors containing genes capable of expressing preHCPB and the prepro sequence were cotransfected into COS-7 cells. COS cells are an African green monkey kidney cell line, CV-1, transformed with an origin-defective SV40 virus and have been widely used for short-term transient expression of a variety of proteins because of their capacity to replicate circular plasmids containing an SV40 origin of replication to very high copy number. There are two widely available COS cell clones, COS-1 and COS-7. The basic methodology for transfection of COS cells is described by Bebbington in Methods: A Companion to Methods in Enzymology (1991) 2, p. 141. […] Cell supernatants (250 μl) were analysed for HCPB activity against Hipp-Arg (5 h assay) as described in Reference Example 3. […]

B1: proHCPB: proHCPB expressed from COS-7 cells (plasmid pMF49), activated with trypsin (protein, UniProt P15086 16-417, looked up)
pro-form: HHGGEHFEGEKVFRVNVEDENHINIIRELASTTQIDFWKPDSVTQIKPHSTVDFRVKAEDTVTVENVLKQNELQYKVLISNLRNVVEAQFDSRVRATGHSYEKYNKWETIEAWTQQVATENPALISRSVIGTTFEGRAIYLLKVGKAGQNKPAIFMDCGFHAREWISPAFCQWFVREAVRTYGREIQVTELLDKLDFYVLPVLNIDGYIYTWTKSRFWRKTRSTHTGSSCIGTDPNRNFDAGWCEIGASRNPCDETYCGPAAESEKETKALADFIRNKLSSIKAYLTIHSYSQMMIYPYSYAYKLGENNAELNALAKATVKELASLHGTKYTYGPGATTIYPAAGGSDDWAYDQGIRYSFTFELRDTGRYGFLLPESQIRATCEETFLAIKYVASYVLEHLY
modifications: pro-form
Take B1: the “hydrolysis of the Hipp-Arg substrate” value (after activation with trypsin 700 μg/ml) is on record as “complete hydrolysis”.

B2: HCPB: mature HCPB in supernatant of COS-7 cells co-transfected with preHCPB and prepro sequence plasmids (protein, UniProt P15086 111-417, looked up)
Carboxypeptidase B: ATGHSYEKYNKWETIEAWTQQVATENPALISRSVIGTTFEGRAIYLLKVGKAGQNKPAIFMDCGFHAREWISPAFCQWFVREAVRTYGREIQVTELLDKLDFYVLPVLNIDGYIYTWTKSRFWRKTRSTHTGSSCIGTDPNRNFDAGWCEIGASRNPCDETYCGPAAESEKETKALADFIRNKLSSIKAYLTIHSYSQMMIYPYSYAYKLGENNAELNALAKATVKELASLHGTKYTYGPGATTIYPAAGGSDDWAYDQGIRYSFTFELRDTGRYGFLLPESQIRATCEETFLAIKYVASYVLEHLY
Under “co-transfection with prepro sequence”, B2 gave a Hipp-Arg substrate hydrolysed of 61%.
